Molecular target: EE-tagged Pank1β (pantothenate kinase 1β), stably overexpressed in HEK293 cells (UniProt Q8TE04)
Assay: proximity ligation; in situ PLA (Duolink) on fixed HEK293/Pank1β cells with anti-Pank1 and anti-CoAsy, anti-PPCS or anti-PPCDC antibodies; exponentially growing cells in full medium; for Pank1/CoAsy also after 16 h serum starvation, serum starvation + 500 μM H2O2 for 10 min, and serum starvation + 1 μM insulin for 3 h or 6 h

Sequence of EE-tagged Pank1β (pantothenate kinase 1β), stably overexpressed in HEK293 cells (Q8TE04 other isoform, or with tags, fused parts or gaps): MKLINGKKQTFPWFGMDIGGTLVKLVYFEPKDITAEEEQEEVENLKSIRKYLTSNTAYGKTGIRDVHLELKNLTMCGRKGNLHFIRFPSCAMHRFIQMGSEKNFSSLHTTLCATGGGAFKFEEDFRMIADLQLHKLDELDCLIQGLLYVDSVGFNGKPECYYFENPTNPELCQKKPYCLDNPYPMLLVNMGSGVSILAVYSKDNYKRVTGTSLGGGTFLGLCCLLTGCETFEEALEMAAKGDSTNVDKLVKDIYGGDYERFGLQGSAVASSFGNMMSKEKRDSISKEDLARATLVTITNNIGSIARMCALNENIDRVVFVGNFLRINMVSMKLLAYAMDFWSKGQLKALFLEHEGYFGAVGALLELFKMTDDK

fold increase of the PLA signal after serum starvation or serum starvation + H2O2, against control cells: 2 fold
Substance: CoA synthase (CoAsy) (from UniProt Q13057 1-564) (enzyme)

Reference: paper PMC7865483
